Assay results as given in article PMC5855951.

Biological target: METTL3;METTL14 (human?;human?, UniProt Q86U44;Q9HCE5 1-580;1-456, |)
Assay: filter binding

METTL3;METTL14, sequence (Q86U44 whole entry, chain 1 of 2): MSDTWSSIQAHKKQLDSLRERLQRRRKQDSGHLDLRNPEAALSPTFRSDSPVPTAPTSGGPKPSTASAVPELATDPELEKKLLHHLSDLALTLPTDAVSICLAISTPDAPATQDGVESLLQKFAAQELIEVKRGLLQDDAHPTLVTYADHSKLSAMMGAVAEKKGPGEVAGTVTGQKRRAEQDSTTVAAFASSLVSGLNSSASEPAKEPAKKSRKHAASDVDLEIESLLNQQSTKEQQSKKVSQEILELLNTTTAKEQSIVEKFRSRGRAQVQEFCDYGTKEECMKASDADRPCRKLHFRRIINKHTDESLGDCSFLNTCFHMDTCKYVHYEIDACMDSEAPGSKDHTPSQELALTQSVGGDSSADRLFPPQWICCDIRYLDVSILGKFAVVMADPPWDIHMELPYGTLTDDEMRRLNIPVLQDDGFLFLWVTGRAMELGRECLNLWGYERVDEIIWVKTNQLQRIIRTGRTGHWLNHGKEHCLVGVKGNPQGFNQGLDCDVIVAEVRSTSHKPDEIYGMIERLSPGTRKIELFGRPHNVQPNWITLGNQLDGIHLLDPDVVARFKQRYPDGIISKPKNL
METTL3;METTL14, sequence (Q9HCE5 whole entry, chain 2 of 2): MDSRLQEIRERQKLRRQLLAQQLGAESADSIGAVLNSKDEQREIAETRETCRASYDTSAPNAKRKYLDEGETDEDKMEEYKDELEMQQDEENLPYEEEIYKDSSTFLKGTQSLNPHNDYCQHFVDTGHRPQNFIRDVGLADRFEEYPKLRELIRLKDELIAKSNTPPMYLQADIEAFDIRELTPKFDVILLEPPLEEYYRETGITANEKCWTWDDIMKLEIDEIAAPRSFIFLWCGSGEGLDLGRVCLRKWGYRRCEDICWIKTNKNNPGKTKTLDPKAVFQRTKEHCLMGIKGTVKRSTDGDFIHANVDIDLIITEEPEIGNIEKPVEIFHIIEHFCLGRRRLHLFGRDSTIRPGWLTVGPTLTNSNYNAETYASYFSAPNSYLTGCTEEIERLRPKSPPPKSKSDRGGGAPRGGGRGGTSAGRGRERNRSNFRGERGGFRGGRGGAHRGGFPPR

GGACUGGACUGGACUGGACU (ssRNA) [4x GGACU RNA probe]
binding result: binds
